# Assay results from IntAct's records for PubMed 25910212.
# B1: Ribose-phosphate pyrophosphokinase 1 (Homo sapiens), P60891 (parent)
# chain: MPNIKIFSGSSHQDLSQKIADRLGLELGKVVTKKFSNQETCVEIGESVRGEDVYIVQSGCGEINDNLMELLIMINACKIASASRVTAVIPCFPYARQDKKDKSRAPISAKLVANMLSVAGADHIITMDLHASQIQGFFDIPVDNLYAEPAVLKWIRENISEWRNCTIVSPDAGGAKRVTSIADRLNVDFALIHKERKKANEVDRMVLVGDVKDRVAILVDDMADTCGTICHAADKLLSAGATRVYAILTHGIFSGPAISRINNACFEAVVVTNTIPQEDKMKHCSKIQVIDISMILAEAIRRTHNGESVSYLFSHVPL
# partner: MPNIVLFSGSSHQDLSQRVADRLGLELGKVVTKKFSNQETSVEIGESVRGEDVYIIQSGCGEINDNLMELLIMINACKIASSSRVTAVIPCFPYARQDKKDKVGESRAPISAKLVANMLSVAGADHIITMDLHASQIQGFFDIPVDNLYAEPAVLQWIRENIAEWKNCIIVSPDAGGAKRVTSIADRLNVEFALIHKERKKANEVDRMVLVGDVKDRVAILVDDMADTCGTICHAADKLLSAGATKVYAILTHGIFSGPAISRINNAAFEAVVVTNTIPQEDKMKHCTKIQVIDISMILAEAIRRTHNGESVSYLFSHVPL
# B2: Acetylcholine receptor subunit gamma (Homo sapiens), P07510-2 (parent)
# chain: MHGGQGPLLLLLLLAVCLGAQGRNQEERLLADLMQNYDPNLRPAERDSDVVNVSLKLTLTNLISLNEREEALTTNVWIEMQWCDYRLRWDPRDYEGLWVLRVPSTMVWRPDIVLENKSQTYSTNEIDLQLSQEDGQTIEWIFIDPEAFTENGEWAIQHRPAKMLLDPAAPAQEAGHQKVVFYLLIQRKPLFYVINIIAPCVLISSVAILIHFLPAKAGGQKCTVAINVLLAQTVFLFLVAKKVPETSQAVPLISKYLTFLLVVTILIVVNAVVVLNVSLRSPHTHSMARGVRKVFLRLLPQLLRMHVRPLAPAAVQDTQSRLQNGSSGWSITTGEEVALCLPRSELLFQQWQRQGLVAAALEKLEKGPELGLSQFCGSLKQAAPAIQACVEACNLIACARHQQSHFDNGNEEWFLVGRVLDRVCFLAMLSLFICGTAGIFLMAHYNRVPALPFPGDPRPYLPSPD
# partner: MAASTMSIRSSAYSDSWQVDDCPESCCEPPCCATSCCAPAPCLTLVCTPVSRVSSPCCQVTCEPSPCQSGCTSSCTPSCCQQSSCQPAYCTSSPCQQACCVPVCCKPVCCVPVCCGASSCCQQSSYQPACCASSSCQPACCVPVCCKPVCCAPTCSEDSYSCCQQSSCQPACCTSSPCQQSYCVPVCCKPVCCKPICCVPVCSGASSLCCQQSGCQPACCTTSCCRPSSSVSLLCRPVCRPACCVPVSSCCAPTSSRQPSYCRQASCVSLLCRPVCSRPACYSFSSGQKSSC
# B3: Acetylcholine receptor subunit gamma (Homo sapiens), P07510-2 (parent)
# chain: B2 chain
# partner: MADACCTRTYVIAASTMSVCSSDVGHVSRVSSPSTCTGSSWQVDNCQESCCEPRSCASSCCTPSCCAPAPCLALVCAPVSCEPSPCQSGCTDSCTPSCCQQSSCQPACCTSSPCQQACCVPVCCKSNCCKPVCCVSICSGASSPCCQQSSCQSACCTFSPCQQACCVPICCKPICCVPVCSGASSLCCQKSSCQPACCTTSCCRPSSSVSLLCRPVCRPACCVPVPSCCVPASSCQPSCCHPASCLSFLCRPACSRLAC
# B4: Adenosylhomocysteinase (Homo sapiens), P23526 (parent)
# chain: MSDKLPYKVADIGLAAWGRKALDIAENEMPGLMRMRERYSASKPLKGARIAGCLHMTVETAVLIETLVTLGAEVQWSSCNIFSTQDHAAAAIAKAGIPVYAWKGETDEEYLWCIEQTLYFKDGPLNMILDDGGDLTNLIHTKYPQLLPGIRGISEETTTGVHNLYKMMANGILKVPAINVNDSVTKSKFDNLYGCRESLIDGIKRATDVMIAGKVAVVAGYGDVGKGCAQALRGFGARVIITEIDPINALQAAMEGYEVTTMDEACQEGNIFVTTTGCIDIILGRHFEQMKDDAIVCNIGHFDVEIDVKWLNENAVEKVNIKPQVDRYRLKNGRRIILLAEGRLVNLGCAMGHPSFVMSNSFTNQVMAQIELWTHPDKYPVGVHFLPKKLDEAVAEAHLGKLNVKLTKLTEKQAQYLGMSCDGPFKPDHYRY
# partner: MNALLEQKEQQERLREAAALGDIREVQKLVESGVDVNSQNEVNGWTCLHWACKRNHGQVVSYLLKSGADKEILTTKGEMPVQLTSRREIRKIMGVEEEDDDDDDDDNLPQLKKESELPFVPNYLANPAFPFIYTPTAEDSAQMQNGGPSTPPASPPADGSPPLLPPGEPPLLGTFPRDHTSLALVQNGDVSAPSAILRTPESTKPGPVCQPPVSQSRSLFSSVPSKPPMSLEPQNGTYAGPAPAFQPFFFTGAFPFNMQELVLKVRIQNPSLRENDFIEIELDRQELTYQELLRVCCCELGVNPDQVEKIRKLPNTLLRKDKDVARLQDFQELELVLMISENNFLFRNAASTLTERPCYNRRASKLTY
# B5: ATP synthase mitochondrial F1 complex assembly factor 2 (Homo sapiens), Q8N5M1 (parent)
# chain: MWRSCLRLRDGGRRLLNRPAGGPSASMSPGPTIPSPARAYAPPTERKRFYQNVSITQGEGGFEINLDHRKLKTPQAKLFTVPSEALAIAVATEWDSQQDTIKYYTMHLTTLCNTSLDNPTQRNKDQLIRAAVKFLDTDTICYRVEEPETLVELQRNEWDPIIEWAEKRYGVEISSSTSIMGPSIPAKTREVLVSHLASYNTWALQGIEFVAAQLKSMVLTLGLIDLRLTVEQAVLLSRLEEEYQIQKWGNIEWAHDYELQELRARTAAGTLFIHLCSESTTVKHKLLKE
# partner: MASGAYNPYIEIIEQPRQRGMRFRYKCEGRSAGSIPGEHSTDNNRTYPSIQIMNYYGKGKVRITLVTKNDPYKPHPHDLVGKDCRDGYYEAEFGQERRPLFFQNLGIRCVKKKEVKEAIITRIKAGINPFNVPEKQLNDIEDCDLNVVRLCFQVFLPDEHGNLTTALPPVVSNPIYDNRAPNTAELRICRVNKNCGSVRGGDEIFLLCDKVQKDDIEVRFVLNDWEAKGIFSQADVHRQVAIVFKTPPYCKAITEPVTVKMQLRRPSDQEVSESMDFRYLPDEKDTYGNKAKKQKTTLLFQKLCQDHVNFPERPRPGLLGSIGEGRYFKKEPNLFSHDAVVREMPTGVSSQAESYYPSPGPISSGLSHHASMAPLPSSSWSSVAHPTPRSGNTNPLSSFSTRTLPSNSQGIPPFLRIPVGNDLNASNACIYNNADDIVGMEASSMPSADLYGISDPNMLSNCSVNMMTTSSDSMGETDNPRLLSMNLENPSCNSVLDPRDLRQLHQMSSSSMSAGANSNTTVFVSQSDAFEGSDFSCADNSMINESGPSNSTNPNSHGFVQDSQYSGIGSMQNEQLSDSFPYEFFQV
# B6: Emerin (Homo sapiens), P50402 (parent)
# chain: MDNYADLSDTELTTLLRRYNIPHGPVVGSTRRLYEKKIFEYETQRRRLSPPSSSAASSYSFSDLNSTRGDADMYDLPKKEDALLYQSKGYNDDYYEESYFTTRTYGEPESAGPSRAVRQSVTSFPDADAFHHQVHDDDLLSSSEEECKDRERPMYGRDSAYQSITHYRPVSASRSSLDLSYYPTSSSTSFMSSSSSSSSWLTRRAIRPENRAPGAGLGQDRQVPLWGQLLLFLVFVIVLFFIYHFMQAEEGNPF
# partner: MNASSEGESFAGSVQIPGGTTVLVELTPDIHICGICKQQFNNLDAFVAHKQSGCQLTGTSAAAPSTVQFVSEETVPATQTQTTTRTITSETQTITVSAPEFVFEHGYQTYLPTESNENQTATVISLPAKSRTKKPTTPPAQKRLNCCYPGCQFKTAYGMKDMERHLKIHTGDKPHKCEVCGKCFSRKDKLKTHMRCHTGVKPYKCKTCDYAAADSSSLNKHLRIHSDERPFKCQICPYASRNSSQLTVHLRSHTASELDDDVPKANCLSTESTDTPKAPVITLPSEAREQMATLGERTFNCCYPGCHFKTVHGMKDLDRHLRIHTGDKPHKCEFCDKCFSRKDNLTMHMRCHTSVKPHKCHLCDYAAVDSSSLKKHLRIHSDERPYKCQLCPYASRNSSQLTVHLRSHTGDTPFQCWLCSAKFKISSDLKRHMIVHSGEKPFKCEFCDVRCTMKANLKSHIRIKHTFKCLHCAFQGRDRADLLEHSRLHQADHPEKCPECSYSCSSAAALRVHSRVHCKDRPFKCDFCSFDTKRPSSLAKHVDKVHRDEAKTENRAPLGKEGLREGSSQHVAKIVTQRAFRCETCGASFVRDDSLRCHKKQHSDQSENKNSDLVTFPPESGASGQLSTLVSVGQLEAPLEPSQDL
# B7: PiggyBac transposable element-derived protein 1 (Homo sapiens), Q96JS3 (parent)
# chain: MYEALPGPAPENEDGLVKVKEEDPTWEQVCNSQEGSSHTQEICRLRFRHFCYQEAHGPQEALAQLRELCHQWLRPEMHTKEQIMELLVLEQFLTILPKELQPCVKTYPLESGEEAVTVLENLETGSGDTGQQASVYIQGQDMHPMVAEYQGVSLECQSLQLLPGITTLKCEPPQRPQGNPQEVSGPVPHGSAHLQEKNPRDKAVVPVFNPVRSQTLVKTEEETAQAVAAEKWSHLSLTRRNLCGNSAQETVMSLSPMTEEIVTKDRLFKAKQETSEEMEQSGEASGKPNRECAPQIPCSTPIATERTVAHLNTLKDRHPGDLWARMHISSLEYAAGDITRKGRKKDKARVSELLQGLSFSGDSDVEKDNEPEIQPAQKKLKVSCFPEKSWTKRDIKPNFPSWSALDSGLLNLKSEKLNPVELFELFFDDETFNLIVNETNNYASQKNVSLEVTVQEMRCVFGVLLLSGFMRHPRREMYWEVSDTDQNLVRDAIRRDRFELIFSNLHFADNGHLDQKDKFTKLRPLIKQMNKNFLLYAPLEEYYCFDKSMCECFDSDQFLNGKPIRIGYKIWCGTTTQGYLVWFEPYQEESTMKVDEDPDLGLGGNLVMNFADVLLERGQYPYHLCFDSFFTSVKLLSALKKKGVRATGTIRENRTEKCPLMNVEHMKKMKRGYFDFRIEENNEIILCRWYGDGIISLCSNAVGIEPVNEVSCCDADNEEIPQISQPSIVKVYDECKEGVAKMDQIISKYRVRIRSKKWYSILVSYMIDVAMNNAWQLHRACNPGASLDPLDFRRFVAHFYLEHNAHLSD
# partner: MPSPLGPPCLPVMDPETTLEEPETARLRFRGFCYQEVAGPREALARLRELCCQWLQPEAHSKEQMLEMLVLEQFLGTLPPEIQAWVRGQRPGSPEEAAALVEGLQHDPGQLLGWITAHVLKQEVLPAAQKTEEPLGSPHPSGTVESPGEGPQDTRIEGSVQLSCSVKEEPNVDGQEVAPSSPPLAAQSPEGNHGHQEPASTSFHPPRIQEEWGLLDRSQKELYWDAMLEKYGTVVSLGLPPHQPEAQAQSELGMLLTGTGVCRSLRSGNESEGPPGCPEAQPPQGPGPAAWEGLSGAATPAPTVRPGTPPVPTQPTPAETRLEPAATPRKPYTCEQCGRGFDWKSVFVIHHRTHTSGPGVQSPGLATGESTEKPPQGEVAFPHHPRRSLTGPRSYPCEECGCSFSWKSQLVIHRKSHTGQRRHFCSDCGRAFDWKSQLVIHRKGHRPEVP
# Variants of: B1
# Conditions: with PRPS2, P11908-2
row,Variant,effect of a mutation on the interaction
1,N114S,with no effect
2,D183H,with no effect

# Variants of: B2
# Conditions: with kr109_human KRTAP10-9, P60411
row,Variant,effect of a mutation on the interaction
1,V107G,disrupting interaction strength
2,R187C,disrupting interaction strength
3,R86C,disrupting interaction strength

# Variants of: B3
# Conditions: with kr108_human KRTAP10-8, P60410
row,Variant,effect of a mutation on the interaction
1,V107G,disrupting interaction strength
2,R86C,disrupting interaction strength
3,R187C,disrupting interaction strength

# Variants of: B4
# Conditions: with anr40_human ANKRD40, Q6AI12
row,Variant,effect of a mutation on the interaction
1,Y143C,with no effect
2,A89V,disrupting interaction strength
3,D86G,with no effect

# Variants of: B5
# Conditions: with REL
row,Variant,effect of a mutation on the interaction
1,W94R,disrupting interaction strength

# Variants of: B6
# Conditions: with zf64b_human ZFP64, Q9NTW7
row,Variant,effect of a mutation on the interaction
1,S54F,with no effect
2,P183T,with no effect
3,P183H,with no effect
4,D72V,with no effect

# Variants of: B7
# Conditions: with zn446_human ZNF446, Q9NWS9
row,Variant,effect of a mutation on the interaction
1,Q248E,with no effect
2,G244E,with no effect
3,P256L,with no effect
4,I678V,with no effect
5,H806D,with no effect
